From publication PMC6555819, “Comprehensive study of nuclear receptor DNA binding provides a revised framework for understanding receptor specificity”
Residue numbers refer to the chain shown, from its start.

B1: NRC3_wobSeed53_DR2_A17G_o1 (dsDNA)
DNA 1: GCCCTTACGGGTCACGGGGTTATAGCACGACGAGCGGCGATTGACAGCGTAGAATGAAGG
DNA 2: CCTTCATTCTACGCTGTCAATCGCCGCTCGTCGTGCTATAACCCCGTGACCCGTAAGGGC
B2: NRC3_wobSeed37_DR1_T5G_o1 (dsDNA)
DNA 1: GCCGGCCAAGGTCAAAGGTCAGTGAAGAGATGACGGGCGATTGACAGCGTAGAATGAAGG
DNA 2: CCTTCATTCTACGCTGTCAATCGCCCGTCATCTCTTCACTGACCTTTGACCTTGGCCGGC
B3: NRC3_wobSeed28_DR1_T8G_o1 (dsDNA)
DNA 1: GCCCTACGGGGCCAAAGGTCATTGATTCCAATGCTCGCGATTGACAGCGTAGAATGAAGG
DNA 2: CCTTCATTCTACGCTGTCAATCGCGAGCATTGGAATCAATGACCTTTGGCCCCGTAGGGC
B4: NRC3_random_hg19_254_o1 (dsDNA)
DNA 1: GCGCCTCTGGAATGTAAACTCCAGCCTGGCATGTATGCGATTGACAGCGTAGAATGAAGG
DNA 2: CCTTCATTCTACGCTGTCAATCGCATACATGCCAGGCTGGAGTTTACATTCCAGAGGCGC
B5: NRC3_wobSeed37_DR1_G4A_o1 (dsDNA)
DNA 1: B2 DNA 1 with G4A, G5T
DNA 2: B2 DNA 2 with C56A, C57T
B6: NRC3_random_hg19_403_o1 (dsDNA)
DNA 1: GCATCTCCTGCCTCAGCCTCCTGAATAGGTGGGACTGCGATTGACAGCGTAGAATGAAGG
DNA 2: CCTTCATTCTACGCTGTCAATCGCAGTCCCACCTATTCAGGAGGCTGAGGCAGGAGATGC
B7: NRC3_random_hg19_398_o1 (dsDNA)
DNA 1: GCAAGAAACAACAAACTTAGTACCTAGAAACAAGAGGCGATTGACAGCGTAGAATGAAGG
DNA 2: CCTTCATTCTACGCTGTCAATCGCCTCTTGTTTCTAGGTACTAAGTTTGTTGTTTCTTGC
B8: NRC3_random_hg19_304_o1 (dsDNA)
DNA 1: GCGGCTGTTAGCGCTCATCTCTGTGTGCCTTCACAGGCGATTGACAGCGTAGAATGAAGG
DNA 2: CCTTCATTCTACGCTGTCAATCGCCTGTGAAGGCACACAGAGATGAGCGCTAACAGCCGC
B9: NRC3_random_hg19_271_o1 (dsDNA)
DNA 1: GCCTCCCTCCCATCGCCTGAACCTGCTGGAATGAGCGCGATTGACAGCGTAGAATGAAGG
DNA 2: CCTTCATTCTACGCTGTCAATCGCGCTCATTCCAGCAGGTTCAGGCGATGGGAGGGAGGC
B10: NRC3_wobSeed134_DR5_A9C_o1 (dsDNA)
DNA 1: GCGCTGCTCGGTCAACTGATGGTCAGCTAAAGCTCGGCGATTGACAGCGTAGAATGAAGG
DNA 2: CCTTCATTCTACGCTGTCAATCGCCGAGCTTTAGCTGACCATCAGTTGACCGAGCAGCGC
B11: NRC3_wobSeed51_DR2_G23A_o1 (dsDNA)
DNA 1: GCCCTCGGAGGACAGAAGGTCAAAGCTGTCCGCTTTGCGATTGACAGCGTAGAATGAAGG
DNA 2: CCTTCATTCTACGCTGTCAATCGCAAAGCGGACAGCTTTGACCTTCTGTCCTCCGAGGGC
B12: NRC3_wobSeed140_DR5_A9G_o1 (dsDNA)
DNA 1: GCAGAATGGGGTTATACGTAGATCAGGGAAGAAAGTGCGATTGACAGCGTAGAATGAAGG
DNA 2: CCTTCATTCTACGCTGTCAATCGCACTTTCTTCCCTGATCTACGTATAACCCCATTCTGC
B13: NRC3_wobSeed82_DR3_T27A_o1 (dsDNA)
DNA 1: GCATCGAAAGGTCGACGAGGTGAGTAAACACCGTTTGCGATTGACAGCGTAGAATGAAGG
DNA 2: CCTTCATTCTACGCTGTCAATCGCAAACGGTGTTTACTCACCTCGTCGACCTTTCGATGC
B14: NRC3_random_hg19_308_o1 (dsDNA)
DNA 1: GCATGAACCACTTGAAGGGTGTGGCCTCCATCTTGCGCGATTGACAGCGTAGAATGAAGG
DNA 2: CCTTCATTCTACGCTGTCAATCGCGCAAGATGGAGGCCACACCCTTCAAGTGGTTCATGC
B15: NRC3_wobSeed134_DR5_G26A_o1 (dsDNA)
DNA 1: B10 DNA 1 with C9A, G26A
DNA 2: B10 DNA 2 with C35T, G52T
B16: NRC3_random_hg19_243_o1 (dsDNA)
DNA 1: GCCAAATGCTAGCAGAAGGCAAGAAACAACTAAGATGCGATTGACAGCGTAGAATGAAGG
DNA 2: CCTTCATTCTACGCTGTCAATCGCATCTTAGTTGTTTCTTGCCTTCTGCTAGCATTTGGC
B17: NRC3_random_hg19_214_o1 (dsDNA)
DNA 1: GCATCCGTTCCTTGGAGGGAGTCTGCAGACTGGCTGGCGATTGACAGCGTAGAATGAAGG
DNA 2: CCTTCATTCTACGCTGTCAATCGCCAGCCAGTCTGCAGACTCCCTCCAAGGAACGGATGC
B18: NRC3_random_hg19_60_o1 (dsDNA)
DNA 1: GCGTGCTCACATGTCACATTCTGGTGATTCTTGCAAGCGATTGACAGCGTAGAATGAAGG
DNA 2: CCTTCATTCTACGCTGTCAATCGCTTGCAAGAATCACCAGAATGTGACATGTGAGCACGC
B19: NRC3_random_hg19_489_o1 (dsDNA)
DNA 1: GCAACAAAGCCTGTATGACAGCACATCTGTGTACAGGCGATTGACAGCGTAGAATGAAGG
DNA 2: CCTTCATTCTACGCTGTCAATCGCCTGTACACAGATGTGCTGTCATACAGGCTTTGTTGC
B20: NRC3_wobSeed27_DR1_G17C_o1 (dsDNA)
DNA 1: GCACTCGGAGGACAAACGTCAGAGCTACGCCAGTGAGCGATTGACAGCGTAGAATGAAGG
DNA 2: CCTTCATTCTACGCTGTCAATCGCTCACTGGCGTAGCTCTGACGTTTGTCCTCCGAGTGC
B21: NRC3_random_hg19_362_o1 (dsDNA)
DNA 1: GCGCCTTCTGCACCTCCTCAGTCCCTCTCCCTTTCCGCGATTGACAGCGTAGAATGAAGG
DNA 2: CCTTCATTCTACGCTGTCAATCGCGGAAAGGGAGAGGGACTGAGGAGGTGCAGAAGGCGC
B22: NRC3_wobSeed122_DR5_T9A_o1 (dsDNA)
DNA 1: GCGCTAGTAGGTCAGTAAAAGGTCACACACCGGTCGGCGATTGACAGCGTAGAATGAAGG
DNA 2: CCTTCATTCTACGCTGTCAATCGCCGACCGGTGTGTGACCTTTTACTGACCTACTAGCGC
B23: NRC3_random_hg19_349_o1 (dsDNA)
DNA 1: GCAGTGTATGCTAAACACCTTCACTTACCTTCCTCAGCGATTGACAGCGTAGAATGAAGG
DNA 2: CCTTCATTCTACGCTGTCAATCGCTGAGGAAGGTAAGTGAAGGTGTTTAGCATACACTGC
B24: NRC3_wobSeed136_DR5_C23T_o1 (dsDNA)
DNA 1: GCTAGCCTAGGTCATTCAGGGGTCAGTATAGAAAGCGCGATTGACAGCGTAGAATGAAGG
DNA 2: CCTTCATTCTACGCTGTCAATCGCGCTTTCTATACTGACCCCTGAATGACCTAGGCTAGC
B25: NRC3_random_hg19_382_o1 (dsDNA)
DNA 1: GCAATGAAGTGGATGCATGGTTGGTGGCTCAGCAGCGCGATTGACAGCGTAGAATGAAGG
DNA 2: CCTTCATTCTACGCTGTCAATCGCGCTGCTGAGCCACCAACCATGCATCCACTTCATTGC
B26: NRC3_random_hg19_146_o1 (dsDNA)
DNA 1: GCGCCTCTAGGTCTTTGAGGAATTGCCACACTGTCTGCGATTGACAGCGTAGAATGAAGG
DNA 2: CCTTCATTCTACGCTGTCAATCGCAGACAGTGTGGCAATTCCTCAAAGACCTAGAGGCGC

These binders were tested against RXRa (Homo sapiens, UniProt P19793) (assay: no ligand; PBM; 180 nM; PBS pH 7.4, 2% milk, 0.02% Triton X-100, 1 mM DTT, BSA, 0.4 mg/ml salmon testes DNA). Conditions: tags: His cleaved; chain copies: 2; label: surface-attached array probe.
Chain of RXRa (P19793 whole entry): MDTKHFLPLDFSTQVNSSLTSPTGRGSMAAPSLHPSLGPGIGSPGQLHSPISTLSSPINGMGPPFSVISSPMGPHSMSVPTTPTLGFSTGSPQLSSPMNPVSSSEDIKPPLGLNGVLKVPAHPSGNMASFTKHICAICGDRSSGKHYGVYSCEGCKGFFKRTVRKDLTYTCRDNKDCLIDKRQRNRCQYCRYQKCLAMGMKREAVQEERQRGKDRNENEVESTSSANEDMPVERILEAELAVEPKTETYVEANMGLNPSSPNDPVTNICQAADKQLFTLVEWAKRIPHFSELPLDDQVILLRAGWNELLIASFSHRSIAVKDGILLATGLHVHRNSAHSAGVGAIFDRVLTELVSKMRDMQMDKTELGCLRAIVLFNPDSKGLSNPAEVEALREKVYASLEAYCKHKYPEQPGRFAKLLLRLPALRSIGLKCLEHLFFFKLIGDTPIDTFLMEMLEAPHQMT
For B1, the binding signal was 8.24 PBM z-score against 500 random probes. For B2, the binding signal was 10.7 PBM z-score against 500 random probes. B3 was tested, and the binding signal was 7.78 PBM z-score against 500 random probes.

The binders below were run against RARb:RXRa (Homo sapiens, UniProt P10826;P19793 full;full) (assay: no ligand; PBM; 270 nM : 90 nM RXRa; PBS pH 7.4, 2% milk, 0.02% Triton X-100, 1 mM DTT, BSA, 0.4 mg/ml salmon testes DNA). Conditions: tags: His kept;His cleaved; copies: 1;1; label: surface-attached array probe.
Chain of RARb:RXRa (P10826 whole entry, chain 1 of 2): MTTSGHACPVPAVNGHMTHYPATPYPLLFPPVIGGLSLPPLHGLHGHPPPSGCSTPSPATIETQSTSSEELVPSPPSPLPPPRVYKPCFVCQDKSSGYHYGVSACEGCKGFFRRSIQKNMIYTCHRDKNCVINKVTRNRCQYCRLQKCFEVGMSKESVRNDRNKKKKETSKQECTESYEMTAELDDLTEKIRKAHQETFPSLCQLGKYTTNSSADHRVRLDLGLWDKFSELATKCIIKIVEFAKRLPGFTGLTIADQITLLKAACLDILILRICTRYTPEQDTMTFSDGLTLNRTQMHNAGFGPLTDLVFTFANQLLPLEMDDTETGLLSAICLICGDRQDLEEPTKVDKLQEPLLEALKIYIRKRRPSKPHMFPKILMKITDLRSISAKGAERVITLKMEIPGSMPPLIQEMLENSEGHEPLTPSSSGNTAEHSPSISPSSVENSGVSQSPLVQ
Chain of RARb:RXRa (P19793 whole entry, chain 2 of 2): as the sequence (P19793 whole entry) above
Method in brief: (§1)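 Custom Agilent 4×180K protein-binding microarrays carried double-stranded probes. Their 34-nt variable regions held direct-repeat seeds, single-nucleotide variants, half-site ablations and random human genomic background sequences. Arrays were incubated 1 h with ligand-free nuclear receptor dimers in PBS pH 7.4, 2% milk, 0.02% Triton X-100, 1 mM DTT, 0.2 mg/mL BSA and 0.4 mg/ml salmon testes DNA. Antibodies against each partner (one per run) detected binding, and scanned fluorescence was regression-normalized. Binding z-scores use random background probes as reference.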
For B4, the binding signal was -0.34 PBM z-score against 500 random probes. With B5 the binding signal was 6.38 PBM z-score against 500 random probes. For B6, the binding signal was -1.01 PBM z-score against 500 random probes. For B7, the binding signal was -0.22 PBM z-score against 500 random probes. With B8 the binding signal was -1.19 PBM z-score against 500 random probes.

These binders were tested against PPARa:RXRa (Homo sapiens, UniProt Q07869;P19793 full;full) in the same assay as above. Conditions: tags: GST kept;His cleaved; copies: 1;1; label: surface-attached array probe.
Chain of PPARa:RXRa (Q07869 whole entry, chain 1 of 2): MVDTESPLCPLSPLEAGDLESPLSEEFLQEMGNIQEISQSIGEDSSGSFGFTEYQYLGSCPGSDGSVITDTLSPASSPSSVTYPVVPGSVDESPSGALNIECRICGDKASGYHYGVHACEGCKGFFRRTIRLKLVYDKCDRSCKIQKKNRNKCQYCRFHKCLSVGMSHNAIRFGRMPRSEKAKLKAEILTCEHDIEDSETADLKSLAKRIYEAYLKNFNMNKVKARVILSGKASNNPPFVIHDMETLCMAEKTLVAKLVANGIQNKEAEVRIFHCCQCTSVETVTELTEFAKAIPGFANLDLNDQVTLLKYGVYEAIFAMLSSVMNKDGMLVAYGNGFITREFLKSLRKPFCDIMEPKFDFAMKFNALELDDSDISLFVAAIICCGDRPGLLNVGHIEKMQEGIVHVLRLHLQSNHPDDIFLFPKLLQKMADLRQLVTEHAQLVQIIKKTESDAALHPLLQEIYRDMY
Chain of PPARa:RXRa (P19793 whole entry, chain 2 of 2): as the sequence (P19793 whole entry) above
Method in brief: as §1
With B9 the binding signal was 0.08 PBM z-score against 500 random probes. For B5, the binding signal was 7.54 PBM z-score against 500 random probes. For B10, the binding signal was 0.3 PBM z-score against 500 random probes.

The binders below were run against FXR:RXRa (Homo sapiens, UniProt Q96RI1;P19793 full;full) in the same assay as above. Conditions: tags: His kept;His cleaved; copies: 1;1; label: surface-attached array probe.
Chain of FXR:RXRa (Q96RI1 whole entry, chain 1 of 2): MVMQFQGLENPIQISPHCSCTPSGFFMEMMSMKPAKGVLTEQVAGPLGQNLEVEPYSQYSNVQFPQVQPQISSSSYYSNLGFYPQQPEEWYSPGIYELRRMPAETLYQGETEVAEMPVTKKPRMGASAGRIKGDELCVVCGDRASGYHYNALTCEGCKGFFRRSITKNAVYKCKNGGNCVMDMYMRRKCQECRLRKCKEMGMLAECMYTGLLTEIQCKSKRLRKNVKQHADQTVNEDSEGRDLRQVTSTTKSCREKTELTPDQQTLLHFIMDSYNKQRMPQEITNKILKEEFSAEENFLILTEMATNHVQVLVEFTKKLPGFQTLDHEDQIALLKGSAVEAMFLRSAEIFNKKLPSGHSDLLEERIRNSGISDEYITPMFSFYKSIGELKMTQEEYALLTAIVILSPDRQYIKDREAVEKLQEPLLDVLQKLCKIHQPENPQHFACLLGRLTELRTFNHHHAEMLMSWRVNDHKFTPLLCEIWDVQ
Chain of FXR:RXRa (P19793 whole entry, chain 2 of 2): as the sequence (P19793 whole entry) above
Method in brief: as §1
For B11, the binding signal was 3.12 PBM z-score against 500 random probes. With B12 the binding signal was 4.21 PBM z-score against 500 random probes. B13 was tested, and the binding signal was 4.45 PBM z-score against 500 random probes. In the case of B14, the binding signal is reported as -0.1 PBM z-score against 500 random probes. With B15 the binding signal was 4.04 PBM z-score against 500 random probes. For B16, the binding signal was -0.92 PBM z-score against 500 random probes. With B17 the binding signal was -0.76 PBM z-score against 500 random probes. With B18 the binding signal was -0.25 PBM z-score against 500 random probes.

These binders were tested against RARa:RXRa (Homo sapiens, UniProt P10276;P19793 full;full) in the same assay as above. Conditions: tags: His kept;His cleaved; copies: 1;1; label: surface-attached array probe.
Chain of RARa:RXRa (P10276 whole entry, chain 1 of 2): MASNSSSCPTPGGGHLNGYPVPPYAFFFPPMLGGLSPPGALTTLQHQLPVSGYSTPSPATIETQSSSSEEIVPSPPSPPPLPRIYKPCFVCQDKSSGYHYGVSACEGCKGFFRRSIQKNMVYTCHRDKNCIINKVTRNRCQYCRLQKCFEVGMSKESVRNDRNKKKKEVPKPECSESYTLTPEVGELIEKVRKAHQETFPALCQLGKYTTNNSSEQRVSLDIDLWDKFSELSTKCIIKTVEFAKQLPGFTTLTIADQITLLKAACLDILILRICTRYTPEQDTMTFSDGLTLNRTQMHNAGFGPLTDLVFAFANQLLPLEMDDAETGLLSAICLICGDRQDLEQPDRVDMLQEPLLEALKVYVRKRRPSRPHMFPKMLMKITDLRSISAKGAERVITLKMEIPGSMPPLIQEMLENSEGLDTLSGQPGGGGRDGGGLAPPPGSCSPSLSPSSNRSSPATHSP
Chain of RARa:RXRa (P19793 whole entry, chain 2 of 2): as the sequence (P19793 whole entry) above
Method in brief: as §1
In the case of B19, the binding signal is reported as -0.79 PBM z-score against 500 random probes. With B11 the binding signal was 3.96 PBM z-score against 500 random probes. With B1 the binding signal was 7.46 PBM z-score against 500 random probes. For B20, the binding signal was -0.3 PBM z-score against 500 random probes. For B9, the binding signal was 0.16 PBM z-score against 500 random probes. With B12 the binding signal was 3.3 PBM z-score against 500 random probes. B4 was tested, and the binding signal was -0.5 PBM z-score against 500 random probes. In the case of B5, the binding signal is reported as 9.27 PBM z-score against 500 random probes. With B2 the binding signal was 9.26 PBM z-score against 500 random probes. With B21 the binding signal was 0.1 PBM z-score against 500 random probes. With B6 the binding signal was -0.6 PBM z-score against 500 random probes. B22 was tested, and the binding signal was 7.6 PBM z-score against 500 random probes. In the case of B7, the binding signal is reported as 0.12 PBM z-score against 500 random probes. B13 was tested, and the binding signal was 3.55 PBM z-score against 500 random probes. With B8 the binding signal was -1 PBM z-score against 500 random probes. With B14 the binding signal was 0.27 PBM z-score against 500 random probes. For B15, the binding signal was 3.74 PBM z-score against 500 random probes. In the case of B10, the binding signal is reported as 0.23 PBM z-score against 500 random probes. For B16, the binding signal was -0.38 PBM z-score against 500 random probes. With B23 the binding signal was -0.1 PBM z-score against 500 random probes. B24 was tested, and the binding signal was 7.49 PBM z-score against 500 random probes. For B3, the binding signal was 7.56 PBM z-score against 500 random probes. With B25 the binding signal was -0.69 PBM z-score against 500 random probes. In the case of B26, the binding signal is reported as -0.8 PBM z-score against 500 random probes. B17 was tested, and the binding signal was -2.33 PBM z-score against 500 random probes. B18 was tested, and the binding signal was 0.05 PBM z-score against 500 random probes.

The binders below were run against RARg:RXRa (Homo sapiens, UniProt P13631;P19793 full;full) in the same assay as above. Conditions: tags: His kept;His cleaved; copies: 1;1; label: surface-attached array probe.
Chain of RARg:RXRa (P13631 whole entry, chain 1 of 2): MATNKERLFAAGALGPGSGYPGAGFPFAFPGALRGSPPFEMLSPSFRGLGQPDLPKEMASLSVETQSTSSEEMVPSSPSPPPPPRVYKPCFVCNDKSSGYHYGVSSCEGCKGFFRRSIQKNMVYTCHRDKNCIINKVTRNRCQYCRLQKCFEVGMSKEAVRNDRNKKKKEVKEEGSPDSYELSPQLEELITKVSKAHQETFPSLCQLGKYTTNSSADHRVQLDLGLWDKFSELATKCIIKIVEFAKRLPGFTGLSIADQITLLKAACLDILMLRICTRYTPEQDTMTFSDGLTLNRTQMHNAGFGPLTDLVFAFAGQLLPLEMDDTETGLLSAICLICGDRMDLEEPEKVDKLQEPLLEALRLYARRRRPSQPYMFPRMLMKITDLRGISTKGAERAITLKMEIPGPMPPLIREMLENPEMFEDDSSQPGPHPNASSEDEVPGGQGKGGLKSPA
Chain of RARg:RXRa (P19793 whole entry, chain 2 of 2): as the sequence (P19793 whole entry) above
Method in brief: as §1
With B19 the binding signal was -0.12 PBM z-score against 500 random probes. B20 was tested, and the binding signal was 0.21 PBM z-score against 500 random probes. With B21 the binding signal was -0.73 PBM z-score against 500 random probes. For B22, the binding signal was 7.87 PBM z-score against 500 random probes. B23 was tested, and the binding signal was 0.03 PBM z-score against 500 random probes. B24 was tested, and the binding signal was 8.33 PBM z-score against 500 random probes.
